Test results: US20170157165, “APTAMER FOR FGF2 AND USE THEREOF” (RIBOMIC INC., published 2017)

B1: aptamer ID 3(8) (ssRNA)
RNA: GGGAUACUAGGGCAUUAAUGUUACCAGUGUAGUCCC
modifications: all C and U 2'-F; 2'-OMe at G1,G2,G3,A4,A9,G10,G11,A14,A17,A18,G20,A23,A26; other purines 2'-OH; 3' idT
B2: aptamer ID 3(12) (ssRNA)
RNA: B1 RNA
modifications: 2'-OMe at G1,G2,G3,A4,A9,G10,G11,A14,A17,A18,G20,A23,A26,U33,C34,C35,C36; other C and U 2'-F; other purines 2'-OH; 3' idT
B3: aptamer ID 3(13) (ssRNA)
RNA: B1 RNA
modifications: 2'-OMe at G1,G2,G3,A4,A9,G10,G11,A14,U15,U16,A17,A18,U19,G20,A23,A26; other C and U 2'-F; other purines 2'-OH
B4: aptamer ID 3(14) (ssRNA)
RNA: B1 RNA
modifications: 2'-OMe at G1,G2,G3,A4,A9,G10,G11,A14,A17,A18,G20,U22,A23,A26; other C and U 2'-F; other purines 2'-OH
B5: aptamer ID 3(15) (ssRNA)
RNA: B1 RNA
modifications: 2'-OMe at G1,G2,G3,A4,A9,G10,G11,A14,A17,A18,G20,A23,C24,C25,A26; other C and U 2'-F; other purines 2'-OH
B6: aptamer ID 3(16) (ssRNA)
RNA: B1 RNA
modifications: 2'-OMe at G1,G2,G3,A4,C7,A9,G10,G11,A14,A17,A18,G20,A23,A26; other C and U 2'-F; other purines 2'-OH
B7: aptamer ID 3(18) (ssRNA)
RNA: B1 RNA
modifications: 2'-F at U8,U16,U21,U28,U30; 2'-OH at G12,G27,G29; all others 2'-OMe
B8: aptamer ID 3(23) (ssRNA)
RNA: B1 RNA
modifications: 2'-F at U8,U16,U21,U28,U30; G12 DNA (2'-H); 2'-OH at G27,G29; all others 2'-OMe
B9: aptamer ID 3(24) (ssRNA)
RNA: B1 RNA
modifications: 2'-F at U8,U16,U21,U28,U30; G27 DNA (2'-H); 2'-OH at G12,G29; all others 2'-OMe
B10: aptamer ID 3(25) (ssRNA)
RNA: B1 RNA
modifications: 2'-F at U8,G12,U16,U21,U28,U30; 2'-OH at G27,G29; all others 2'-OMe
B11: aptamer ID 3(26) (ssRNA)
RNA: B1 RNA
modifications: 2'-F at U8,U16,U21,G27,U28,U30; 2'-OH at G12,G29; all others 2'-OMe
B12: aptamer ID 3(27) (ssRNA)
RNA: B1 RNA
modifications: 2'-F at U8,U16,U21,U28,G29,U30; 2'-OH at G12,G27; all others 2'-OMe
B13: aptamer ID 3(28) (ssRNA)
RNA: B1 RNA
modifications: 2'-F at U8,U16,U21,U28,U30; 2'-OH at G12,G27,G29; all others 2'-OMe; PS between G11 and G12
B14: aptamer ID 3(29) (ssRNA)
RNA: B1 RNA
modifications: 2'-F at U8,U16,U21,U28,U30; 2'-OH at G12,G27,G29; all others 2'-OMe; PS between G12 and C13
B15: aptamer ID 3(30) (ssRNA)
RNA: B1 RNA
modifications: 2'-F at U8,U16,U21,U28,U30; 2'-OH at G12,G27,G29; all others 2'-OMe; PS between A26 and G27
B16: aptamer ID 3(31) (ssRNA)
RNA: B1 RNA
modifications: 2'-F at U8,U16,U21,U28,U30; 2'-OH at G12,G27,G29; all others 2'-OMe; PS between G27 and U28
B17: aptamer ID 3(32) (ssRNA)
RNA: B1 RNA
modifications: 2'-F at U8,U16,U21,U28,U30; 2'-OH at G12,G27,G29; all others 2'-OMe; PS between U28 and G29
B18: aptamer ID 3(33) (ssRNA)
RNA: B1 RNA
modifications: 2'-F at U8,U16,U21,U28,U30; 2'-OH at G12,G27,G29; all others 2'-OMe; PS between G29 and U30
B19: aptamer ID 4 (ssRNA)
RNA: GGAUACUAGGGCAUUAAUGUUACCAGUGUAGUCC
modifications: 2'-F at U7,U15,U20,U27,U29; 2'-OH at G11,G26,G28; all others 2'-OMe; 3' idT
B20: aptamer ID 4(1) (ssRNA)
RNA: B19 RNA
modifications: 2'-F at U7,G11,U15,U20,U27,U29; 2'-OH at G26,G28; all others 2'-OMe; 3' idT
B21: aptamer ID 4(2) (ssRNA)
RNA: B19 RNA
modifications: 2'-F at U7,G11,U15,U20,G26,U27,U29; 2'-OH at G28; all others 2'-OMe; 3' idT

What was measured:
FGF2 [1] = target: T1, FGF2 (Homo sapiens, UniProt P09038 P09038:135-288); test: inhibition; SPR inhibition of FGF2-FGFR1alpha(IIIc); each 0.1 uM; settings: tags: Peprotech
T1 sequence (P09038 135-288, one chain of several): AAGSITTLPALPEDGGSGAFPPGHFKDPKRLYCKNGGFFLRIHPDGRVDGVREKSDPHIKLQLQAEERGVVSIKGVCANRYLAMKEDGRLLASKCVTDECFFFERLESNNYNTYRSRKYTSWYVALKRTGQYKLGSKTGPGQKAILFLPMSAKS
Protocol: BIAcore2000 manufactured by BIAcore was used for the measurement. As directed in BIAcore Company's protocol, Protein A (21181, manufactured by PIERCE) was immobilized on a CM5 sensor chip. About 1,000 RU of human FGFR1α (IIIc), R2α (IIIc), R3 (IIIc), R4 (manufactured by R&D Systems) fused with the Fc portion of IgG (manufactured by R&D systems) was each immobilized thereon. As analyte, a mixture of FGF2 (0.1 μM), heparin (0.1 μM) (manufactured by Pfizer) and aptamer (0.15 μM) was flown. Before an inhibitory test, a mixture of FGF2 and heparin was confirmed to bind to 4 kinds of receptors. […] A sensorgram showing that the aptamer shown by aptamer ID 1 inhibits binding of FGF2 and FGFR1α(IIIc), 2α(IIIc), 3(IIIc), 4 is shown in FIG. 2.
In addition, the inhibitory rate against each of the 4 kinds of receptors was determined. The inhibitory rate was determined with the maximum binding amount of the FGF2 and heparin mixture as 0, and the binding amount with an injection buffer alone as 100. The binding amount here means the RU value of the peak top of sensorgram. The inhibitory rate was calculated. […] The inhibitory rate of other aptamers was not more than 50%.
To enhance FGF2-binding activity, stability, drug deliverability and the like, the nucleic acids shown by aptamer IDs 3(1)-3(40), aptamer IDs 4 and 4(1)-4(4), aptamer ID 5 and aptamer ID 6 were chemically synthesized based on the aptamer shown in SEQ ID NO: 3. Here, the aptamer shown by aptamer ID 4 is the aptamer shown by aptamer ID 3(19) wherein one G(M) at the 5′-terminal and one C(M) at the 3′-terminal have been deleted. The aptamer shown by aptamer ID 5 is the aptamer shown by aptamer ID 3(19) wherein one G(M) has been added at the 5′-terminal and one C(M) has been added at the 3′-terminal. The aptamer shown by aptamer ID 6 is the aptamer shown by aptamer ID 3(19) wherein A(M) alone has been added at the 5′-terminal. These nucleic acids were produced by chemical synthesis.

FGF2 [2] = target: T1, FGF2; test: cell_activity; HUVEC proliferation, FGF2 0.58 nM; settings: tags: Peprotech
Protocol: Human umbilical vein endothelial cells (HUVEC) were seeded in a 96 well flat bottom plate at 5×10³ cells per well, and cultured overnight using a medium EGM-2 Bullet Kit for endothelial cells (CC-3162 manufactured by Lonza) containing 2% fetal bovine serum and growth factors. Thereafter, the medium was discarded, the cells were washed twice with PBS buffer, and a mixture of the aptamer shown by aptamer ID 3(21) (5, 2.5, 1, 0.5 nM) and FGF2 (final concentration 0.5 nM), dissolved in a medium exclusively for endothelial cells containing 2% fetal bovine serum, was added. After 72 hr, viable cell number was examined using Cell Counting Kit-8. For the measurement of absorbance, a microplate reader (450 nm) was used. One sample was measured at n=3. As a positive control, anti-FGF2 antibody Anti-FGF, basic (Ab-3) Mouse mAb (3H3) (manufactured by Calbiochem) were used. With the OD value per well obtained by the addition of FGF2 alone and culture of the cells for 3 days as inhibitory activity 0%, and that of the cell obtained by FGF2 free culture for 3 days as inhibitory activity 100%, the inhibitory activity of the aptamer was calculated from the OD value per well obtained by culturing with the addition of a mixture of FGF2 and the aptamer. As a result, it was shown that the aptamer shown by aptamer ID 3(21) has a high inhibitory activity against FGF2.
By a method similar to the above except that the 96 well flat bottom plate was changed to a collagen-coated one, the activity of various aptamers was evaluated. The concentration of FGF2 added was 0.58 nM. As a negative control RNA, Macugen (registered trade mark) sequence without addition of PEG, and with C6 modification of the 5′-terminal and idT modification of the 3′-terminal was used.

Binder | activity (FGF2 [1]) [%] | IC50 (FGF2 [2]) [nM]
B1 | 84 | 27
B2 | 89 | 21
B3 | 88 | 15
B4 | 87 | 12
B5 | 86 | 14
B6 | 87 | 7.9
B7 | 89 | 2.6
B8 | 91 | 5.3
B9 | 90 | 7.3
B10 | 90 | 5.1
B11 | 99 | 3
B12 | 99 | 3.7
B13 | 91 | 4
B14 | 91 | 3.1
B15 | 99 | 3.3
B16 | 91 | 10
B17 | 91 | 4
B18 | 90 | 4
B19 | 95 | 5
B20 | 93 | 3.8
B21 | 94 | 5.1
